Measurements: patent US20230220042A1 (SHANGHAI JIAO TONG UNIVERSITY SCHOOL OF MEDICINE, published 2023)
Changes are numbered by the printed parent chain. Names may count otherwise.

T1: Biotin-FcγRIIB (human, UniProt P31994 43-217, limits assumed, biotin-labelled)
T1 construct: Bought, biotin-labelled; used at 1 µg/ml for staining and sorting; also called human FcγRIIB; CD32b
T1 sequence (looked up): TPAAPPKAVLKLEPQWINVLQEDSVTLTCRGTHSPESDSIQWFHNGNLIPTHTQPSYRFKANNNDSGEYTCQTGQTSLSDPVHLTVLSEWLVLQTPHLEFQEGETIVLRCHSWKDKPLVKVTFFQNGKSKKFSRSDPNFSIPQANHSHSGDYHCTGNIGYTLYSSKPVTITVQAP

B1: human IgG2 anti-mouse CD40 surface displayed antibody, Fc mutant P271G/P331C (antibody, name in EU numbering)
light chain (with the P2A rest): DTVLTQSPALAVSPGERVTISCRASDSVSTLMHWYQQKPGQQPKLLIYLASHLESGVPARFSGSGSGTDFTLTIDPVEADDTATYYCQQSWNDPWTFGGGTKLELKRTVAAPSVFIFPPSDEQLKSGTASVVCLLNNFYPREAKVQWKVDNALQSGNSQESVTEQDSKDSTYSLSSTLTLSKADYEKHKVYACEVTHQGLSSPVTKSFNRGECGSGATNFSLLKQAGDVEENPG
heavy chain: EVQLVESDGGLVQPGRSLKLPCAASGFTFSDYYMAWVRQAPTKGLEWVASISYDGSSTYYRDSVKGRFTISRDNAKSTLYLQMDSLRSEDTATYYCGRHSSYFDYWGQGVMVTVSSASTKGPSVFPLAPCSRSTSESTAALGCLVKDYFPEPVTVSWNSGALTSGVHTFPAVLQSSGLYSLSSVVTVPSSNFGTQTYTCNVDHKPSNTKVDKTVERKCCVECPPCPAPPVAGPSVFLFPPKPKDTLMISRTPEVTCVVVDVSHEDGEVQFNWYVDGVEVHNAKTKPREEQFNSTFRVVSVLTVVHQDWLNGKEYKCKVSNKGLPACIEKTISKTKGQPREPQVYTLPPSREEMTKNQVSLTCLVKGFYPSDIAVEWESNGQPENNYKTTPPMLDSDGSFFLYSKLTVDKSRWQQGNVFSCSVMHEALHNHYTQKSLSLSPGKLEPPPSTVSNMATVAVLVVLGAAIVTGAVVAFVMKMRRRNTGGKGGDYALAPGSQTSDLSLPDCKVMVHDPHSLA
notes: as m1; positions are Eu numbers; copies: 2 + 2
B2: human IgG2 anti-mouse CD40 surface displayed antibody, Fc mutant P271G/S298D (antibody, name in EU numbering)
light chain (with the P2A rest): B1 light chain (with the P2A rest)
heavy chain: B1 heavy chain with S293D, C326P
notes: as for B1
B3: human IgG2 anti-mouse CD40 surface displayed antibody, Fc mutant P271G/S298K (antibody, name in EU numbering)
light chain (with the P2A rest): B1 light chain (with the P2A rest)
heavy chain: B1 heavy chain with S293K, C326P
notes: as for B1
B4: human IgG2 anti-mouse CD40 surface displayed antibody, Fc mutant P271G/T299M (antibody, name in EU numbering)
light chain (with the P2A rest): B1 light chain (with the P2A rest)
heavy chain: B1 heavy chain with T294M, C326P
notes: as for B1
B5: human IgG2 anti-mouse CD40 surface displayed antibody, Fc mutant P271G/S298G (antibody, name in EU numbering)
light chain (with the P2A rest): B1 light chain (with the P2A rest)
heavy chain: B1 heavy chain with S293G, C326P
notes: as for B1
B6: human IgG2 anti-mouse CD40 surface displayed antibody, Fc mutant P271G/T299A (antibody, name in EU numbering)
light chain (with the P2A rest): B1 light chain (with the P2A rest)
heavy chain: B1 heavy chain with T294A, C326P
notes: as for B1
B7: human IgG2 anti-mouse CD40 surface displayed antibody, Fc mutant P271G/P331T (antibody, name in EU numbering)
light chain (with the P2A rest): B1 light chain (with the P2A rest)
heavy chain: B1 heavy chain with C326T
notes: as for B1
B8: human IgG2 anti-mouse CD40 surface displayed antibody, Fc mutant P271G/S298L (antibody, name in EU numbering)
light chain (with the P2A rest): B1 light chain (with the P2A rest)
heavy chain: B1 heavy chain with S293L, C326P
notes: as for B1
B9: human IgG2 anti-mouse CD40 surface displayed antibody, Fc mutant P271G/S298E (antibody, name in EU numbering)
light chain (with the P2A rest): B1 light chain (with the P2A rest)
heavy chain: B1 heavy chain with S293E, C326P
notes: as for B1

The binders below were run against T1, Biotin-FcγRIIB (assay: FACS sorting of displayed Fc library on biotin-FcγRIIB, NGS).

Row | Enrichment factor (after/before sorting) | Increased factor a (enrichment factor/wild-type enrichment factor) | Binder
1 | 140 | 187 | B1
2 | 6.78 | 9.06 | B2
3 | 10.2 | 13.6 | B3
4 | 4.74 | 6.33 | B4
5 | 9.73 | 13 | B5
6 | 6.28 | 8.39 | B6
7 | 32.3 | 43.2 | B7
8 | 188 | 252 | B8
9 | 298 | 398 | B9

What follows are binders tested against T1, Biotin-FcγRIIB (assay: FACS sorting of displayed Fc library on biotin-FcγRIIB, NGS; reference P271G).

Row | Increased factor 2 c Site 1 (combined/point mutation) | Binder
10 | 39.6 | B1
11 | 1.9 | B2
12 | 2.9 | B3
13 | 1.3 | B4
14 | 2.8 | B5
15 | 1.8 | B6
16 | 9.1 | B7
17 | 53.2 | B8
18 | 84.2 | B9
